Reference: paper PMC8949286, “A New Strategy for As(V) Biosensing Based on the Inhibition of the Phosphatase Activity of the Arsenate Reductase from Thermus thermophilus” (International Journal of Molecular Sciences, 2022)

Experiments:
TtArsC = biological target: T1, TtArsC (Thermus thermophilus, UniProt Q72HI5); assay: biochemical
T1 construct: gene TT_C1502; recombinant, pET30/TtarsC in E. coli BL21-CodonPlus(DE3)-RIL; thermo-precipitation, anion exchange (Resource Q), gel filtration (Superdex S75); no tag mentioned
T1 sequence (Q72HI5 1-150): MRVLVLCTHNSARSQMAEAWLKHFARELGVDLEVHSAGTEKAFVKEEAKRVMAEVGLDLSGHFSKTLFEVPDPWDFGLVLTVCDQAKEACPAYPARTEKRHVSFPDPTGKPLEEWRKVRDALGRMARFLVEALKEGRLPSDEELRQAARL

purified protein = substrate: O=[N+]([O-])c1ccc(OP(=O)(O)O)cc1; assay: purified protein; format: biochemical, Thermus thermophilus; settings: no inhibitor, 4 µM enzyme, 20 mM Tris-HCl pH 7, 60 °C

Work on O=[As]O [As(III)] yielded a Ki (TtArsC) of 394 ± 40.3 µM.

B1: TtArsC (Thermus thermophilus HB27) (protein)
chain: T1 sequence (Q72HI5 1-150)
notes: recombinant, pET30/TtarsC in E. coli BL21-CodonPlus(DE3)-RIL; thermo-precipitation, anion exchange (Resource Q), gel filtration (Superdex S75); no tag mentioned
With B1 the Km (purified protein) was 9.57 ± 1.95 mM, the Vmax (purified protein) was 0.0193 µmol/min/mg and the kcat (purified protein) was 0.005 s⁻¹.
